Laboratory results: PMC5388602 (Biochemistry, 2016)

Molecular target: the molecule itself
Experiment: crystal structure

B1: SrpA sialoglycan binding region (SrpABR), tag cleaved, as crystallised (domain or fragment)
chain: RRATDTTPPTITVPSDIIAYRGEEFEFYFEITDDSGQVKNIELSTFGKPLGLNWLEYSEDNFNVPGNATSDNPLRVRVHGTVPLNEPIPADKNRAQFTRTIRAWDAAGNVSSNITFVIKYRAQTDKYNPADPTITYVDRLSSLSPSEKNAVEAAVRAANPQIPAAARITVSANGTVTITYPDSSTDTITANRVVKDLASSR
stoichiometry N: 2
